In data set [1] the test system is OVA-specific serum IgG. The data set is described as follows: Serum total anti-OVA IgG ELISA after s.c. immunization. The class given is in vivo, BALB/c or C57B1/6 mice. On the procedure:
Antibody titer measurements. Total IgG titers from sera were measured using an ELISA by adsorbing OVA to flat-bottom transparent 96-well plates at room temperature overnight, blocking overnight with bovine serum albumin, adding serially-diluted serum (starting from a minimal dilution of 200×) for 2 hr, and then detecting bound OVA-specific IgG antibody using HRP-labeled anti-mouse IgG (Bio-Rad). Plates were washed between each step using 0.05% Tween-20 in PBS. HRP developed with tetramethylbenzidine was measured using a Molecular Devices SpectraMax Microplate Reader. Monoclonal mouse anti-OVA IgG1 (clone OVA-14, Sigma-Aldrich, St. Louis, Mo.) was included as a standard reference in each assay. Endpoint titers were defined as the highest dilution at which immunized serum ELISA signal exceeded the average+2 standard deviations of pre-immune sera analyzed in parallel. To interpret our titer values in more physiological terms, we used OVA-14 as a standard to determine the concentration of OVA-specific IgG as equivalents of this monoclonal antibody.
In general terms: In an ELISA, binding on a coated surface is turned into a signal by an enzyme label.

The test system of data set [2] is naïve OT-I (CD8+) T-cells. The data set is described as follows: Priming of naïve OT-I T-cells by particle-pulsed splenic DCs (CFSE dilution). The conditions noted are these: DCs pulsed with 10,000-fold higher doses of soluble OVA than the particle dose, with or without MPLA; not shown. The data set is classed as cell-based, mice. The procedure:
Responses of naïve CD4^+ or CD8^+ T-cells transgenically expressing T cell receptors specific for OVA-derived peptides were assessed by in vitro co-culture of OT-II or OT-I primary T-cells with particle-pulsed DCs. Primary dendritic cells were isolated from spleens of C57B1/6 mice by digesting spleens with collagenase and isolating DCs using a CD11c^+ magnetic bead isolation kit (Miltenyi Biotec). In parallel, naïve CD4^+ T-cells or CD8+ T-cells were isolated from OT-II or OT-I TCR-transgenic mice, respectively (Jackson Laboratories), and labeled with CFSE to trace cell division following the manufacturer's instructions. OVA-loaded particles with post-inserted MPLA or soluble OVA/MPLA were added to splenic DCs (12,500 cells/well) at titrated cell:antigen ratios (starting from 40:1 particles:DC, corresponding to 6.2 μg particles), and incubated for 3 hr in a total volume of 150 μL/well at 37° C. and 5% CO2. CFSE-labeled OT-I or OT-II cells (50,000 cells/well) were then added to DCs in a volume of 50 μL complete RPMI media. This total culture volume of 200 μL/well was incubated for 3 days at 37° C. and 5% CO2 to allow proliferation of T-cells, and CFSE dilution was then measured by flow cytometry.

The test system of data set [3] is OVA-specific IgG. The data set is described as follows: Avidity of OVA-specific IgG (ELISA with 6M urea wash). The class given is in vivo, BALB/c mice. As to conditions: BALB/c, 10 ng OVA, boost day 21, day 28 sera, 6M urea 10 min. On the procedure: The avidity of IgG responses to immunization was measured using an ELISA analysis of serum binding in the presence of urea using a commonly reported procedure from the literature. Serum titer analysis was conducted in duplicate assay plates until serum adsorption was complete. At this point, one plate was incubated in the presence of 6M urea for 10 min followed by washing and detection of bound IgG on both plates as above. Avidity indices were defined as the serum dilution of urea-treated samples where the ELISA absorbance was 0.5 divided by the dilution of untreated samples giving the same absorbance.

“Also recorded” adds a separate entry of the source.

With `CCCCCCCCCCCCCCCCCCCCCCCCCC(=O)N[C@@H](CO[C@H]1O[C@H](CO)[C@H](O)[C@H](O)[C@H]1O)[C@H](O)[C@H](O)CCCCCCCCCCCCCC` [αGC solution, α-galactosylceramide, reference compound], the “IgG titers 14 days after a single immunization, αGC dose titration” value in data set [1] (BALB/c, 2 ng OVA on microparticles with 10 ng, 100 ng, or 1 μg αGC (on particles or in solution 10 min before at same site)) is listed as “only a fraction of mice had detectable titers; also recorded: equally effective”.

B1: ovalbumin (protein, UniProt P01012 2-386, looked up)
Ovalbumin: GSIGAASMEFCFDVFKELKVHHANENIFYCPIAIMSALAMVYLGAKDSTRTQINKVVRFDKLPGFGDSIEAQCGTSVNVHSSLRDILNQITKPNDVYSFSLASRLYAEERYPILPEYLQCVKELYRGGLEPINFQTAADQARELINSWVESQTNGIIRNVLQPSSVDSQTAMVLVNAIVFKGLWEKAFKDEDTQAMPFRVTEQESKPVQMMYQIGLFRVASMASEKMKILELPFASGTMSMLVLLPDEVSGLEQLESIINFEKLTEWTSSNVMEERKIKVYLPRMKMEEKYNLTSVLMAMGITDVFSSSANLSGISSAESLKISQAVHAAHAEINEAGREVVGSAEAGVDAASVSEEFRADHPFLFCIKHIATNAVLFFGRCVSP
notes: model protein antigen ovalbumin dissolved in saline
Turning to B1, in data set [2], the OT-I proliferation entry is reported as “minimal OT-I proliferation”. For the same molecule, the “anti-OVA IgG titers” value in data set [1] (BALB/c, 10 ng OVA s.c. prime, boost with same dose 3 weeks later, 1.3 μg MPLA and 600 ng αGC where used) is reported as “only a subset of mice responded”. Further, the “time serum titers were maintained” value in data set [1] (BALB/c, 10 ng OVA s.c., boost 3 weeks later) is given as “not sustained in a majority of the mice”. Moreover, the “avidity: IgG binding following urea washes” value in data set [3] is “no binding”.

B2: SAT(PEG)4-modified OVA: ovalbumin modified with the heterobifunctional cross-linker SAT(PEG)4 for particle coupling (protein, UniProt P01012 2-386, looked up)
Ovalbumin: B1 Ovalbumin
modifications: SAT(PEG)4 cross-linker modified
notes: ovalbumin modified with the heterobifunctional cross-linker SAT(PEG)4 for particle coupling
B2: the “influence of SAT(PEG)4 modification on the protein's immunogenicity” value in data set [1] (data not shown) was “no significant influence”.
